Among the data in publication PMC5473869 are Kd, fold reduction of affinity against wild-type SMRT(1255–1452) and fold reduction of binding against wild-type GST-SMRT (1358–1391) values, retold here.

Experiment [1] concerns the target HDAC7 catalytic domain (residues 449–952) (human) (UniProt Q8WUI4). Briefly: ITC; HDAC7 at 50 µM in the cell, 25 °C; 26 injections of 1.5 µl of SMRT(1255–1452) wild type or alanine mutant at 300 µM; 50 mM KH2PO4/K2HPO4 pH 6.5, 100 mM KCl, 1 mM DTT, 1 mM β-ME; Kd values approximate (noise, aggregation of HDAC7).
Experiment [2] addresses HDAC7 catalytic domain (residues 449–952), wild type, purified (human) (UniProt Q8WUI4). Briefly: ITC; ITC200, HDAC7 50 µM in the cell, SMRT(1255–1452) wild type or alanine mutants 300 µM injected; 50 mM KH2PO4/K2HPO4 pH 6.5, 100 mM KCl, 1 mM DTT, 1 mM β-ME; 25 °C; hampered by precipitation of HDAC7.
Experiment [3] addresses GST-SMRT (1358–1391) R1381A (human). Briefly: pull-down; purified GST-peptide or GST control on glutathione sepharose beads, incubated 2 h at 4 °C with supernatant of an E. coli HDAC7 expression lysate; washes with PBS pH 7.3, 3 mM DTT, 0.05% Tween 20, 500 mM NaCl; anti-His western blot. In general terms: A western blot detects proteins with antibodies after separation by electrophoresis.

For experiment [4], the target named is SMRT(1255-1452) (human) (UniProt Q9Y618). Briefly: MST; Monolith NT.115, SMRT(1255–1452) labelled with NT647, HDAC7 or HDAC7 C535A/H541A 20 nM to 20 µM; 25 mM Tris pH 8.0, 10 mM MgCl2, 150 mM KCl, 0.5% Tween-20; room temperature.
Experiment [5] shares this target. Briefly: SPR; Biacore 3000, SMRT(1255–1452) amine-coupled to a CM5 chip (5500 RU), HDAC7 injected at 500 nM to 8 µM; 50 mM KH2PO4/K2HPO4 pH 6.5, 100 mM KCl, 1 mM DTT; two-step (three-state) model, overall apparent Kd. (In general: In SPR one partner is held on a chip, and binding of the other changes the refractive index at the surface.)
The target is the same in experiment [6]. Briefly: NMR titration; 15N-1H HSQC of labelled SMRT(1255–1452) titrated with unlabeled HDAC7 (1:0.72, 1:2.2, 1:3.8) or mixed with HDAC7 C535A/H541A (40 µM:144 µM, 1:3.6); peak intensities; 50 mM potassium phosphate, 100 mM KCl, 1 mM DTT, pH 6.5, 25 °C.
For experiment [7] the target is unchanged. Briefly: NMR titration; 15N-labelled SMRT(1255-1452) with 0.72, 2.2 and 3.8 molar equivalents of unlabelled wt-HDAC7; relative HSQC peak intensities fitted to a bimolecular binding equation; 25 °C, 50 mM potassium phosphate pH 6.5, 100 mM KCl, 1 mM DTT; rough estimates, HDAC7 precipitated.

In turn, “SMRT(1255-1452) E1376A (from UniProt Q9Y618 1255-1452) (domain or fragment)” showed a Kd in experiment [1] of 34 µM.
Still for that read-out and setting: the result for “SMRT(1255-1452) K1384A (from UniProt Q9Y618 1255-1452) (domain or fragment)” reads 43 µM; that for “SMRT(1255-1452) L1379A (from UniProt Q9Y618 1255-1452) (domain or fragment)”, 7.5 µM; that for “SMRT(1255-1452) L1386A (from UniProt Q9Y618 1255-1452) (domain or fragment)”, 28 µM.
On the same count and under the same terms, the result for “SMRT(1255-1452) R1360A (from UniProt Q9Y618 1255-1452) (domain or fragment)” reads 19 µM; that for “SMRT(1255-1452) R1381A (from UniProt Q9Y618 1255-1452) (domain or fragment)”, 55 µM.
“SMRT(1255-1452) V1372A (from UniProt Q9Y618 1255-1452) (domain or fragment)” returned a Kd in experiment [1] of 37 µM.
As for “SMRT(1255–1452) (from UniProt Q9Y618 1255-1452) (domain or fragment)”, the Kd in experiment [2] was 14.1 µM.
Turning to “SMRT(1255–1452) R1381A (from UniProt Q9Y618 1255-1452) (domain or fragment)”, the fold reduction of affinity against wild-type SMRT(1255–1452) in experiment [2] amounted to 4 fold.

B1: HDAC7 (residues 449–952), wild type, hexahistidine-tagged, in E. coli expression lysate (domain or fragment)
chain: LLWEQQRLAGRLPRGSTGDTVLLPLAQGGHRPLSRAQSSPAAPASLSAPEPASQARVLSSSETPARTLPFTTGLIYDSVMLKHQCSCGDNSRHPEHAGRIQSIWSRLQERGLRSQCECLRGRKASLEELQSVHSERHVLLYGTNPLSRLKLDNGKLAGLLAQRMFVMLPCGGVGVDTDTIWNELHSSNAARWAAGSVTDLAFKVASRELKNGFAVVRPPGHHADHSTAMGFCFFNSVAIACRQLQQQSKASKILIVDWDVHHGNGTQQTFYQDPSVLYISLHRHDDGNFFPGSGAVDEVGAGSGEGFNVNVAWAGGLDPPMGDPEYLAAFRIVVMPIAREFSPDLVLVSAGFDAAEGHPAPLGGYHVSAKCFGYMTQQLMNLAGGAVVLALEGGHDLTAICDASEACVAALLGNRVDPLSEEGWKQKPNLNAIRSLEAVIRVHSKYWGCMQRLASCPDSWVPRVPGADKEEVEAVTALASLSVGILAEDRPSEQLVEEEEPMNL
For the molecule B1, the fold reduction of binding against wild-type GST-SMRT (1358–1391) in experiment [3] was 4 fold.

B2: HDAC7 catalytic domain (residues 449–952), wild type, purified (domain or fragment)
chain: B1 chain
B2: the Kd was 2800 nM with SMRT(1255-1452) (human) [4], 2100 nM with SMRT(1255-1452) (human) [5] and < 40 µM in the experiment with SMRT(1255-1452) (human) [6].

B3: HDAC7 catalytic domain (residues 449–952) (domain or fragment)
chain: B1 chain
In the case of B3, the Kd with SMRT(1255-1452) (human) [7] was 19 µM.
